The data set concerns the target Musashi-2 (MSI2) (UniProt Q96DH6 1-328). Kind of data set: EMSA; 10 mM HEPES pH 7.6, 20 mM KCl, 1 mM MgCl2, 1 mM DTT, 5% glycerol, protease inhibitors, 2 ug tRNA, 20 U SUPERase-In, 20 ul, 50 ng MSI2, 20 ng RNA, 25 C; 8% PAGE. Conditions: protein: recombinant; label: 5'-32P. A general note: Mobility shift assays separate free from complexed probe on a gel.
Musashi-2 (MSI2), sequence (Q96DH6 whole entry): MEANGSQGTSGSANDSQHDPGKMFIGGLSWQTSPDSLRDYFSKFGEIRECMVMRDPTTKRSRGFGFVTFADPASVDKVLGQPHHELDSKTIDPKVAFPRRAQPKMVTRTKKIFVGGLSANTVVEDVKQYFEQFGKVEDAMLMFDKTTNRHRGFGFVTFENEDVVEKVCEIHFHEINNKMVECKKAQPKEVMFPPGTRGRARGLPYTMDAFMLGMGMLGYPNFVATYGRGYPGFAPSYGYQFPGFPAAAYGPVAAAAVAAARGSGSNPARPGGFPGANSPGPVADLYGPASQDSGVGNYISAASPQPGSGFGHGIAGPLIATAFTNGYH
For GCAGAUGUUUUAGAAGGAAAAA (ssRNA) [EGFR Oligo 1 wt], the binding result is “binds”.
On to GUAGUAGUAGUAGUA (ssRNA) [Positive Control oligo], for which the binding result was “binds”.
The same measure for GGUCCCAAGCCAAGCCUUAAGU (ssRNA) [Negative Control oligo]: “no binding”.
UAACUUCGUUUUAGAAACAUUCAAG (ssRNA) [EGFR Oligo 2 wt]: the binding result is on record as “binds”.
